Results taken from patent US7947279B2, “Peptide having hydrolase activity” (The Trustees of Columbia University in the City of New York, priority 2005, dated 2011).
Entries after “also recorded” stand apart in the source; their conditions may differ.

Tests used:
Uch-L1 [1] = biological target: T1, Uch-L1 (Mus musculus, UniProt Q9R0P9); test: Hydrolase (ubiquitin-AMC) assay on hippocampi of injected mice; assay type: in vivo
T1 construct: hippocampal tissue was treated with tissue protein extraction reagent; from tissue; host or cells: mouse hippocampal slices (C57/BL6 or APP/PS1 and WT littermates)
T1 sequence (Q9R0P9 1-220): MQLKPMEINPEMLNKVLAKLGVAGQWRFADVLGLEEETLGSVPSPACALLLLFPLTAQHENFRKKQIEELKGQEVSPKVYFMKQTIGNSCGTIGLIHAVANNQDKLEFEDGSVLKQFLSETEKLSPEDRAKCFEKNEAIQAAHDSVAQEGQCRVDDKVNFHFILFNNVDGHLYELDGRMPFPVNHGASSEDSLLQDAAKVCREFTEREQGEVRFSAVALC
Description: (§1) Measurement of Hydrolase Activity: The hydrolase assay was performed as previously described (Nishikawa et al., 2003) with slight modifications. Briefly, hippocampal tissue was treated with tissue protein extraction reagent (T-PER; Pierce) containing freshly added EDTA-free protease inhibitors. Homogenate was centrifuged at 10,000 rpm for 5 min. Protein concentration was measured in the supernatant using the BCA protein assay reagent. In some experiments hydrolysis was initiated by adding 10 μl of 20 nM Uch-L1 or Uch-L3 (Boston Biochem). The hydrolase assay was performed using fluorogenic ubiquitin-7-amino-4-methylcoumarin (ubiquitin-AMC) (Boston Biochem) as a substrate. The substrate was diluted in assay buffer (50 mM Tris-HCL, 0.5 mM EDTA, 5 mM dithiothreitol and 0.1 mg/ml ovalbumin, pH 7.6). Each reaction mixture containing 400 nM substrate and 100 μg enzyme sample was incubated for 5 min at room temperature. The reaction was monitored using a fluorescence spectrophotometer (CytoFluor Series 4000, ABI Inc) at 25° C. The free AMC fluorophore was excited at 380 nm and measured at 460 nm. Hydrolase activity was expressed as relative fluorescence intensity/min (Dang et al., 1998). In some experiments, hydrolysis was also measured on the soluble and insoluble fractions (FIG. 28D). In a group of experiments hydrolysis was measured by mixing ubiquitin-AMC with 20 nM TAT fusion proteins (FIG. 27C). In other experiments the substrate was Nedd8-AMC (Boston Biochem). LDN-57444 was purchased from Calbiochem.

Uch-L1 [2] = test: as above; assay type: in vivo, mouse; settings: 0.02-0.04 g/kg, i.p.
Description: as §1

PKA = PKA kinase activity in hippocampal slices; assay type: cell-based, mouse
cAMP = test: Intracellular cAMP enzyme immunoassay; assay type: cell-based, rat; settings: fusion protein 100 nM 24 hrs, Aβ
Description: Intracellular cAMP Enzyme Immunoassay. Hippocampal neurons from E18 rats were dissociated and plated on poly-L-lysine coated 6-well plates in minimum essential medium supplemented with N-2, glucose, albumin, pyruvic acid, antibiotics and antimycotics. […] After 24 hours, cell lysates were obtained and intracellular cAMP levels were measured using cAMP Biotrak Enzymeimmunoassay (EIA) System (Amersham) in accordance with manufacturer's instructions.

phospho-CREB = test: Phospho-CREB immunofluorescence in hippocampal slices; assay type: cell-based, mouse
Aβ42 = test: Quantification of amyloid peptides by ELISA in APP/PS1 mice; assay type: in vivo, mouse; settings: for cortex Aβ levels / hippocampal Aβ levels: 0.02-0.04 g/kg i.p.; for Aβ levels in APP/PS1 mice (words): single injection 0.02-0.04 g/kg i.p.
[3] = Native gel dimer formation; assay type: physicochemical
hippocampal slices = assay type: cell-based, mouse
Description: Western Blotting: Protein levels were assessed using standard procedures. Protein extraction was performed using buffer with and without detergent. For the extraction of protein using detergent, hippocampal tissues and cultured hippocampal neurons (5 DIV) were homogenized in RIPA buffer (50 mM Tris-HCl pH 7.4, 1% Triton X-100, 1% sodium deoxycholate, 0.1% SDS, 150 mM sodium chloride, 10 mM sodium fluoride, 30 mM sodium pyrophosphate, 50 mM sodium orthovanadate) containing 1× complete protease inhibitor (Roche) and 1 mM phenylmethylsulfonyl fluoride (PMSF). For extraction of proteins without detergent, hippocampal extracts were homogenized with disposable dounce homogenizers in buffer A, containing 10 mM HEPES pH 7.3, 300 mM sucrose, protease 1× complete protease inhibitor (Roche) and PMSF. After centrifugation at 10,000×g supernatant proteins were resolved on a 8% or 4-20% gradient Tris-Glycine gel, transferred onto PVDF or nitrocellulose membrane and blocked in 5% skim milk in PBS-Tween 0.1% (PBS-T). […] To control loading and transfer, protein immunoreactivities were normalized against total extracellular signal-regulated protein kinases (ERK1/2) levels with a rabbit analyzed using a rabbit polyclonal anti-ERK1/2 antibody (Cell Signaling Technology, Inc). NIH IMAGE was used to analyze the scanned blots and quantify the intensity of the protein signals.

[4] = 0.4 mg/kg, sacrificed 4 hrs after injection
[5] = listed as Uch-L1 fusion protein
[6] = 3-5 month old APP/PS1 mice, sacrificed 3 weeks after injection
[7] = 4 month old APP/PS1 mice, sacrificed 4 hrs after injection
[8] = 4 hrs after injection, 4 month old APP/PS1 mice

CC(=O)O/N=C1\C(=O)N(Cc2cc(Cl)ccc2Cl)c2ccc(Cl)cc21 [LDN-57444, reference compound]
Ubiquitin-C-Terminal hydrolase activity in hippocampi (Uch-L1 [1]; [4]): decreased
Uch-L1 activity (Uch-L1 [1]; [4]): 65 % of vehicle injected controls
recovery of hydrolase activity (Uch-L1 [1]; single i.p. injection 0.4 mg/kg): ≤ 8 h
maximal inhibition of hydrolase activity (Uch-L1 [1]; single i.p. injection 0.4 mg/kg, 30 minutes post-injection): ~40 % of control

B1: TAT-HA-Uch-L1: fusion protein: 11-amino acid transduction domain of HIV-transactivator protein (TAT) fused with an HA tag and human Uch-L1 (protein)
chain: MQLKPMEINPEMLNKVLSRLGVAGQWRFVDVLGLEEESLGSVPAPACALLLLFPLTAQHENFRKKQIEELKGQEVSPKVYFMKQTIGNSCGTIGLIHAVANNQDKLGFEDGSVLKQFLSETEKMSPEDRAKCFEKNEAIQAAHDAVAQEGQCRVDDKVNFHFILFNNVDGHLYELDGRMPFPVNHGASSEDTLLKDAAKVCREFTEREQGEVRFSAVALCKAA
modifications: left off: small tags and cut ends
total Uch activity in APP/PS1 mice (Uch-L1 [2]): returned to control levels; also recorded: re-established normal total Uch activity
total Uch activity in WT mice (Uch-L1 [2]): increased above control level; also recorded: increased total Uch activity
PKA activity (PKA; 20 nM TAT-HA-Uch-L1 1 hr, then 200 nM Aβ plus TAT-HA-Uch-L1 20 min): 89.21±3.21%
PKA activity in Aβ-treated slices (PKA; fusion protein 20 nM 1 hr pre-incubation, 200 nM Aβ 20 min): blocked the reduction; also recorded: increased levels of kinase activity
cAMP levels in Aβ-treated cultured hippocampal neurons (words) (cAMP): remained low; also recorded: did not affect the decrease in cAMP levels; also recorded: does not rescue the decrease in cAMP levels
cAMP levels in Aβ-treated cultured hippocampal neurons (words) (cAMP; listed as TAT-Uch-L1 fusion protein): does not re-establish normal cAMP levels
cAMP levels in Aβ-treated cultured hippocampal neurons (words) (cAMP; [5]): does not rescue the decrease in cAMP levels
tetanus-induced increase in phospho-CREB in Aβ-treated slices (phospho-CREB; fusion protein 20 nM 1 hr, then 200 nM Aβ plus fusion protein 20 min): significant protection against Aβ42 effects on phospho-CREB; also recorded: reversed; also recorded: re-established the tetanus-induced increase in CREB phosphorylation; also recorded: re-established the tetanus-induced increase in phospho-CREB
tetanus-induced increase in phospho-CREB (words) (phospho-CREB; fusion protein alone): did not affect the increase; also recorded: had no effect
phospho-CREB immunofluorescence without theta-burst (phospho-CREB; no tetanus): did not modify immunofluorescence; also recorded: neither Aβ42 alone nor TAT-HA-Uch-L1 alone nor TAT-HA-Uch-L1 paired with Aβ42 induced changes
cortex Aβ levels (Aβ42; [6]): 90.28±17.38 pmol/mg protein
hippocampal Aβ levels (Aβ42; [6]): 178.60±18.24 pmol/mg protein
cortex Aβ levels (Aβ42; [7]): 4.17±0.68 pmol/mg protein
hippocampal Aβ levels (Aβ42; [7]): 6.35±0.54 pmol/mg protein
cortical Aβ42 (Aβ42; [8]): about 104%
hippocampal Aβ42 (Aβ42; [8]): about 94 % that of vehicle-treated APP/PS1 mice
cortical Aβ42 (Aβ42; mice tested for fear conditioning over 21 days): about 103%
Aβ levels in APP/PS1 mice (words) (Aβ42): no difference in Aβ42 levels; also recorded: did not change Aβ levels
Aβ levels in APP/PS1 mice (words) (Aβ42; [5]): did not change Aβ levels
dimer formation ([3]; 1 μM): no dimer formation was detected; also recorded: No dimers were detected
dimer formation ([3]; 5 μM): Dimers were seen at 5 μM; also recorded: A weak band corresponding to dimers and other oligomeric species was detected
localisation in soluble/insoluble protein fractions (hippocampal slices): localized to the soluble fraction
